experiment: yeast display, Sf9 membrane polyspecificity reagent, FACS + sequencing; frameworks hold sequencing errors
Outline: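 Galactose induction of a Saccharomyces cerevisiae BJ5465 synthetic nanobody display library ran 36–48 hours. The cells were then stained for 1 hour at 4 °C with 10% biotinylated, detergent-solubilized Sf9 membrane reagent, pulled down on streptavidin microbeads and FACS-sorted into low and high (top ~1%) gates on expression and reagent-binding fluorescence. Labels for polyreactivity follow the gate of origin.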

Row | Sequence | polyreactivity (PSR sort gate)
1 | QVQLVESGGGLVQAGGSLRLSCAASGFTFYGYAMGWYRQAPGKERELVAAISSSGTSTYYADSVKGRFTISRDNAKNTVYLQMNSLKPEDTAVYYCAALVRGAYGYGYWGQGTQVTVSS | high polyreactivity
2 | QVQLVESWRGLDQAGGSLRLICSASGGIFKGYSMGWFRQAPGKERELVAVISSRVGSTYYADSLKGRFTISRDNEKNTVYLQMNSQKPEHTAVYYCAKRRYAAVNYNYWGQGTQVTVSS | high polyreactivity
3 | QVQLVESGGVLVQAGGSLRLSCAASGLICVPYSMGWYRQAPGKERELVAAISWRGGITYYADSVKGRFTISRDNAKNNVYLQMNSLKPEDTAVYYCAADGPYTGDGALDYWGQGTQVTVSS | high polyreactivity
4 | QVQLVESGGGLVQAGGSLRLSCAASGSTFPSNVMGWNRQAPVKERELVAAITWSGVRTYYADSVKGRFTISRDNAKNTVYLQMNSLKPEDTAVYYCAARSTYVRYDYWGQGTQVTVSS | high polyreactivity
5 | QVQLVESGGGLVQAGGSLRLSCAASGSTFSSYGMGWYRQAPGKERELVAAISKRGGSTYYADSVKGRFTISRDNAKNTVYLQMNSLKPEDTAVYYCAARYRLYYYFRFDWGQGTHVTVSS | high polyreactivity
6 | QDQLVQSGGGLVQAGGSLRKSCAASGSTFNPNTMGWNKQAPGKERELVASITWRGGRTYYADSVKGRFTISRDNAKNTVSLQMNSLKPEDTAVFYCASVTFSYDGYDYWGQGTQVTVTS | low polyreactivity
7 | QVQLVESGGGLVQAGGSLRLSCAASGRTFRVYAMGWDRQAPGKERELVAAISGRGGSTYYADSVKGRFSISRDNAMNTVYLQMNSLKPEDTAVDYCAKSNPYLRLGEGNYWGQGTQVTVSS | high polyreactivity
8 | QVQLVESGGGLVQAGGSLRLSCAASGRTIRYNAMGWYRQAPGKERELVAAITGSGGSTYYADSVKGRFTISRDNAKNTVYLQMNSLKPEDTAVYYCNAVGIWFPIRLIVPYDYWGQGTQVTVSS | low polyreactivity
9 | QFQLVESVGGLVQAGGSLRLSCAASGSTFVRNELGWYRQAPGKERELVAANSVDGSSTYYADSVKGRFTISRDNAKNTVYLQINSLKPEDTAVYYCNADWDYRDFYDITYDYWGQGTQVTVSS | low polyreactivity
10 | QVQIVESGGGLVQAGGSLRLTCAASGSILWYNTMGWYRQAPGKERELVAAIRTSGSRTYYADSVKGRFTISRDNAKNTVYVQMNSLKPEDTAVYYCAAERGSQRVRSGYWGQGTQVTVSS | high polyreactivity
11 | QVQLVESGGGLVQAGGSLRLSCAASGSTFIFNAMGWYRQAPGKERELVAAISWRVGRTYYADSVKGRFTISRDNAKNTVYLQMNSLKPEDTAVYYCAAPKSSTGHYYSWGQGTQVTVSS | low polyreactivity
12 | QVQLVESRGGVVQAGGSLRLRCAASGRTFYRNVMGWSRQAPGKERELVAAITGDGGSTYYADSVKGRFTISRDNAKNTVYVQMNSQKAEVTAVYYCAASVYPQKRFFYWGHGTQVTVSS | high polyreactivity
13 | QVQLVESGGGLVQAGGSLRLSCAASGRIFQTYAMGWYRQAPGKERDLVASITSGVDTYYADSVKGRFTISRDNAKNTVYLQMNSLKPEDNAVYYCAAEPYRTVTAYRYSLYWYNYWGQGTQVTVSS | high polyreactivity
14 | QVQLVESGGGLVQAGGSLRLSCAASRSTFFRYAMGWYRQAPGKERELVAAITWSGGSTYYADSVKGRFTISRDNAKNTVYLQMNSLKPEDTAVYYCAAPWRLFSLYDYWGQGTQVTVSS | low polyreactivity
15 | QVQLVESGGGLVQAGGSLRLSCAASGFIISNNAMGWYRQAPGKERELVAVINGGGSTYYADSVKGRFTISRDTAKNTVYLQMNSLKPEDTAVYYCNADRFADYDYWGQGTQVTVSS | low polyreactivity
16 | QVQLVESGGGLVQAGGSLRLSCAASGYIFYRNAMGWYRQAPVKEREFVAAISSSGVSTYYADSVKGRFTISRDNAKNTVYLQMNSLKPEDTAVYYCAASYLTWKRRYDYWGQGTQVTVSS | high polyreactivity

Row | Sequence | polyreactivity (PSR sort gate)
17 | QVQLVESGGGLVQAGGSLRLSCAASGSTFIWNGIVWSRQAPGNEREWVAAITSSSTNYADSVKGRFTISRDNANNTVYVQMNSLKPEDTAVYYCAAEIYPLGSLRLGPGEYDHWGQGTQVTVSS | low polyreactivity
18 | QVQLVESGGGLVQAGGSLRLSCAASGRTFALYTMGWYRQAPGKERELVAAINWSGTSTYYADSVKGRFTISRDTAKNTVYLQMNSLKPEDTAVYYCNARGQYNRLMDYWGQGTKVTVSS | low polyreactivity
19 | QVQLVESGGGLVQAGGSLRLSCAASGNTFGAYAMGWYRQAPGKERELVAAITWSGGRTYYADSVKGRFTISRDNAKNTVYLQMNSLKPEDTAVYYCAADYGYYRGGVRFGYWGQGTQVTVSS | high polyreactivity
20 | QVQLVESGGGLVQAGGSLRLSCAASGTIFLVYAMGWYIQAPGKERELVAAITFSGGDTYADSVKGRFTISRDNAKNTVYLQMNSLKPEDTAVYYCNAPWPYYGSVVGQDFDYWGQGTQVTVSS | low polyreactivity
21 | QVQLVESGGGLVQAGGSLRLSCAASGFTFAYYAMGWYRQAPGKERELVAAITSGGSTKYADSVKGRFTISRDNAKNTVYLQMNSVKPEDTAVYYCFLRGRATQWDFGYWGQGTQVTVSS | high polyreactivity
22 | QVQLVESGGGLVQAGGSLRLSCAASVIIFNRYAMGRYRQAPGKERELVAAISGTGASTYYADSVKGRFTISRDNAKNTVYLQMNSLKPEDTAVYYCNARKRYKSGYWGQGTQVTVSS | high polyreactivity
23 | QVQLVESGGGLVQAGGSLRLSCAASGRIFTTYAMGWYRQAPGKERELVAAISRSGGSTYYADSVKGRFTISRDNAKNTVYLQMKSLKPEDTAVYYCAAVPTSNSFRSSFYYWGQGTQVTVSS | high polyreactivity
24 | QLQHVESGGGLVQAGGSLRLSCDASGYTFAWYAMGWYIQAPGKESELVAAISVSGGSTYYADSVKGRFTISRDNAKNTVYIQMNSLKPEDTAVYYCAARRYLGYSASYDYWGQGTQVTVSS | high polyreactivity
25 | QVQLVESGGGLVQAGGSLRLSCAASGFIFTYYAMGWYRQAPGKERELVAAIRRGGNTYYADSVKGRFTISRDNAKNTVYLQMNSLKPEDTAVYYCAASAGPRASYYYWGQGTQVTVSS | high polyreactivity
26 | QVQLVESGGGLVQAGGSLRLSCAASGSIFPENVMGWYRQAPGKERELVAAISWSGGSTYYADSVKGRFTISRDNAKNTVYLQMNSLKPEVTAVYYCNRVPSWRIDYDYWGQGTQVTVSS | low polyreactivity
27 | QVQLVESGGGLVQAGGSLRLSCAASGSTIIDYDMGWYRQAPGKERELVAGISWSGGRTYYADSVKGRFTISRDNAKNTVYLQMNSLKPEDTEVYYCNKVGRGARTSDYWGQGTQVTVSS | high polyreactivity
28 | QVQLVESGGGLVQAGGSLRLSCAASGGIFSSYAMGWYRQAPGKERELVASISRRGTSTYYADSVKGRFTISRDNAKNTVYLQMNSLKPEDTAVYYCAAGTKYTSAVHFYYWGQGTQVTVSS | high polyreactivity
29 | QVQLVETGGGLVQAGGSLRLSCAPSGRIFGIYAMGWYRQAPGKERELVASITDGTITNYADSVKGRFTISRDNAKNTVYLQMNSLKPVDTAVYYFAAGTQAHAYVVRPIEMDYWGQGTQVTVSS | low polyreactivity
30 | QVQLVESGGGLVQAGGSLRLSCAASAITVKRDVMGWYRQAPGKERELVAAISRTGGSTYYADSVKGRFTISRDNAKNTVYLQMNSLKPEDTAVYYCAAATCPGIYDYWGQGTQVTVSS | high polyreactivity
31 | PVQLVESGGGIVQAGGSLRLSCAASGSTFVGKAMGWSRQAPGKQREMFAAISRTGGSPYYADSVKGRFSISRDNAKNSVYLQMISLKPEDTAVYYCAEVYGGPYGELDYWGHGTQVTVSS | high polyreactivity
32 | QVQLQESGGGLVQVGGSLRLTCAASGTIFIYGFLGWNRQAPGKERELVASINLGGITNYADSVKGRFTISRDNAKNTVYLQMISLKPEDTAVYYCAAYVVTGQNYGYWGQGTQVTVSS | low polyreactivity
